“And” between values parts separate entries of the source, which are not always exact repeats. Equal entries are not always repeated.
How the values were obtained:
[1] = biological target: SARS-CoV-2 spike, N439K variant (pseudovirus RVP-703) (SARS-CoV-2) (UniProt P0DTC2); experiment: cell-based or functional assay
[2] = biological target: SARS-CoV-2 spike, South African Δ3 B.1.351 variant (pseudovirus RVP-724) (SARS-CoV-2) (UniProt P0DTC2); experiment: cell-based or functional assay

Substance: Imdevimab (biosimilar version) (antibody)
- EC50 (pM) Neutralization, N439K [1]: 2260 pM and 2220 pM
- potency in pseudovirus neutralization against REGN10933 [1]: 1000 fold
- EC50 (pM) Neutralization, South Africa B.1.351 [2]: 2.48 pM and 2.37 pM
